The target of assay [1] is human Bcl-2 protein produced in 32D-BCL-2 cells (human) (UniProt P10415). Description: immunoprecipitation with anti-Bcl-2 monoclonal antibody 4D7 or control mouse IgG1 from 32D-BCL-2 lysate, in vitro immune complex kinase assay.
For assay [2], the target named is GST protein without BAP-1 sequences (Schistosoma japonicum (Blood fluke), UniProt P08515 = GST). Briefly: GST pull-down of 35S-labeled in vitro translated protein, SDS-PAGE and fluorography. The procedure:
The cDNA sequences encoding Bcl-X-L, Bcl-X-S, Bcl-2 and Bcl-2β were subcloned into plasmid pSK-II (Stratagens), which contains a T7 RNA polymerass binding site. Cloning into pSK-II allows for the in vitro production of RNA, which can be translated in vitro in the presence of ^35S-methionine using reticulocyte lysates to obtain ^35S-labeled proteins. The ^35S-labeled Bcl-2-related proteins (20 µl of in vitro translation mix) were added to approximately 1 µg of GST-BAP-1 fusion protein immobilized on 10 µl of glutathione-Sepharose or with approximately 1 µg of immobilized GST control protein as described above. Following incubation at 4° C. for 1 hr, the Sepharose particles were washed 3× in a solution containing 147 mM KCl, 20 mM Hepes (pH 7.1), 1 mM MgCl_2, 0.5 mM EGTA, 1 mM PMSF, 0.05 NP-40, 1 mM DTT, 1% non-fat dried milk and 1% BSA. The Sepharose particles were collected by centrifugation and boiled in Laemmli sample buffer to release any bound ^35S-labeled Bcl-2-related proteins. The released proteins were size-fractionated by SDS-PAGE using a 10% gel and visualized by fluorography using X-ray film.

Where “and” joins values, the source holds several entries; their conditions need not be identical. Equal entries are not always repeated.

The record followed here is patent US5686595, “Bcl-2-associated proteins” (La Jolla Cancer Research Foundation, dated 1997).

“full length endogenous Raf-1 kinase (from UniProt Q99N57) (enzyme)”: the Raf-1 kinase activity in Bcl-2 immune complexes relative to control immune complexes (× (fold over control immune complexes)) in assay [1] was 20 and 50.

B1: 35S-labeled Bcl-X-S (in vitro translated) (other)
chain: MSQSNRELVVDFLSYKLSQKGYSWSQFSDVEENRTEAPEGTESEMETPSAINGNPSWHLADSPAVNGATGHSSSLDAREVIPMAAVKQALREAGDEFELRYRRAFSDLTSQLHITPGTAYQSFEQDTFVELYGNNAAAESRKGQERFNRWFLTGMTVAGVVLLGSLFSRK
modifications: 35S-methionine label
In the case of B1, the binding result in assay [2] is “no binding”.

B2: 35S-labeled Bcl-2β (in vitro translated) (other)
chain: MAHAGRTGYDNREIVMKYIHYKLSQRGYEWDAGDVGAAPPGAAPAPGIFSSQPGHTPHPAASRDPVARTSPLQTPAAPGAAAGPALSPVPPVVHLTLRQAGDDFSRRYRRDFAEMSSQLHLTPFTARGRFATVVEELFRDGVNWGRIVAFFEFGGVMCVESVNREMSPLVDNIALWMTEYLNRHLHTWIQDNGGWVGALGDVSLG
modifications: 35S-methionine label
As to B2, the binding result in assay [2] was “no binding”.
